From the nanobody polyreactivity screen of Harvey et al. (2022)

Test: yeast display, Sf9 membrane polyspecificity reagent, FACS + sequencing; frameworks hold sequencing errors
In short: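 A synthetic nanobody library was expressed on Saccharomyces cerevisiae BJ5465 by galactose induction for 36–48 hours. The library was stained for 1 hour at 4 °C with 10% biotinylated, detergent-solubilized Sf9 membrane reagent and enriched with streptavidin microbeads before FACS. Low and high (top ~1%) gates were set on anti-HA fluorescence for expression and streptavidin fluorescence for reagent binding, and each polyreactivity label reflects the gate of origin.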

Row | Sequence | polyreactivity (PSR sort gate)
1 | QDQLVESGGGLVQAGGSLRLSCAASGSNFLKYTMGWYRQAPGKERELVAAITSGGTTNYADSVKGRFTISRDNAKNTVYLQMNSLKPEDTAVYYCARDSYQLGLIRDPLEYDYWGQGTQVTVSS | low polyreactivity
2 | QVQLVDSGGGLVQAGGSLRLSWAASGSTLYVNAIGFYRQAPGKERELVSAISWSGGSTNYADSVKGRFTISRDNAKNTVYLQMNSQKPEDTSVYYCAVYYRRWFSRYDYWGQGTQVTVSS | low polyreactivity
3 | QVQLVESGGGLVHAGGSLRLSCAASGSIFLLYAMGWYRQAPGKERELVAAITSSGGSTNYADSVKGRFTISRDNAKNTVYLQMNSLKPEDTAVYYCATAPYAYTILGSRFDYWGQGTQVTVSS | low polyreactivity
4 | QVQLVESGGGLVQAGGSLRLSCAASGRTFGQNAMGWYRQAPGKERELVAAISASGSNTYYADSVKGRFTISRDHAKNTVYLQMNSLKPEDTAVYYCAKQVYRPGQQSRYDYWGQGTQVTVSS | low polyreactivity
5 | QVQLVESGGGLVQSGGSLRLSCAASGRTFYYYTMGWYRPAPGKVRELVAAIYRVGSTYYADSVKGRFTISRDNAKNTVYLQMNSLKPEDTADYYCNAVLRFGWYWVDYWGQGTQVTVSS | high polyreactivity
6 | QVQLVESGGGLVQAGGSLRLSCAASGRIFQRYMGWYRQAPGKERELVAAISRRGGSTYYADSVKARFTISRDNAKNTVYLQMNSLKPEDTAVYYWNAVNVLAPSRGRRYDYWGQGTQVTVSS | high polyreactivity
7 | QVQLVESGGGLVQAGGSLRLSCAASGRTFVGYAMGWYRQAPGKERELVAAISRRGGSTYYADSVKGRFTISRDYAKKTVYLQMNSLKPEDTAVYYCARDYGGVGAPGSAGAYDYWGQGTQVTVSS | high polyreactivity
8 | KVQLVESGGGLVQAGGSLRLSCAASGSISANYAMGWYRQAPGKERELVAAISRRGASTYYADSVKGRFTISRDNAKNTVYLQMNSLKPEDTAVYYCNAKKYHVPGVDYWGQGTQVTVSS | high polyreactivity
9 | QVQLVESGVGLVQAGGSLRLSCASSGRIFDLNSMGWYIQAPGKERELVAVIDRDGSTYYADSVKGRFTISRDNAKNTVYLQMNSLKPDDTAVYYCNKYWYSRHVRYWAYYAEQRYDYCGQGTQVTVSS | low polyreactivity
10 | QIQLVESGGGIVQAGGSLRLSCAASGFIFNTYDMGWYRQAPGKEMELVAVITSGGTTNYADSVKGRFTISRDNAKNTVYLQINCLKPEDTAVYSCNRDSVLDPGNPKPYVFDYWGQGTQVTVSS | low polyreactivity
11 | QVQLEESGGGLVQAGGSLRLSCAASGFTFKRYAMGSYRQAPGKEREFVAAITRGGGSTYYADSVKGRFTISRDNAKNSVYLQMNSLKPEDTAVYYCAADPQYTIRDYWGQGTQVTVSS | high polyreactivity
12 | QVQLVESGGGLVQAGGSLRLSCAASGITFVFYTMGWYRQAPGKERELVAAISRSGASTYYADSVKGRFTISRDNAKNTVYLQMNSLKPEDTAVYYCAADRGYRFRMDYWGQGTQVTVSS | high polyreactivity
13 | QVQLVESGGGLVQAGGSLRLSCAASGRIFPGYAMGWYRQAPGKERELVAAISTNGGRTYYADSVKGRFTISRDNAKNTVYLQMNSLKPEDTAVYYCNAARAVYTQKRFDSWGQGTQVTVSS | high polyreactivity
14 | QVQLVESGGGLVQAGGSLRLSSAASGRIFDANDMGWYRQAPGQERELVAVISSRGGSTYYADSVKGRFTISRDNAKNTVDLQMNSLKPEEAAVYYCAKGLSVAGYDYWGQGTQVTVSS | low polyreactivity
15 | QVQLVESGGGLDQAGGSLRLSCAASGFIFWRNTMGWYRPAPGKERELVAVITRGGSTYYADSVKGRFTISRDTAKNTVYLQMNSLKPEDTAVYNSAARNDYFKTFSGYDYWGQGTQVTVSS | low polyreactivity
16 | QVHLVESGGVLVQAGGSLRLSCAASGFTFNRYAMGWYRQAPGKERELVAAITSAGNTYYADSVKARFTNSRDNGKNTVYLQMNSMKPEDTAVYYCLNGRYWRRYDYWGQGTQVTVSS | high polyreactivity
17 | QVQLVESGGGLVQAGGSLRLSCAASGITFGRNTMGWYRQAPGKERELVAAIDSGGNTYADSVKGRFTISRDNAKNTVYLQMNSLKPEDTAVYYCAVDGGEFSSYGYWGLGTQVTVSS | low polyreactivity
18 | QVQLVESGGGLVQAGGSLRLSCAASGITFRSYAMGWYRQAPGKERELVAAIRSGGSTSYADSVKGRFTISRDNAKTTVYLQMNSLKPEDTAVYYCAAGGYVPLPDITFWKFGYWGQGTQVTVSS | low polyreactivity
19 | QVQLVESGGGLVQAGGSLRLSCAASGSTFWPYAMGWYRQAPGKERELVAAITRSGGSTYYADSVKGRFTISRDNAKNTVYLQMNSLKPEDTAVYYCAKYTSSRFEYDYWGQGTQVTVSS | low polyreactivity
20 | QVQLVESGGGVVQAGGSLRLSCAAYRSIFLFKAMGWYRQATGKERELVAAINRDDSTYYADSVKGRFTISRDNAKNTVYLQMNSLKPEDTAVYYCAAPVLHASYGYGYWGQGTQVTVSS | low polyreactivity
21 | QVHLVESGGGLVQAGGRLRLSCAASGSIFDRYAMGWYRQAPGKEREFVARIRSSTGGTDYADSVKGRFTISRDNAKNTVYLQMNILKPEDTAVYYCAASSSHYYYWIQGSYWGRGVYWGQGSQVTVSS | high polyreactivity
